We go through nine molecules from patent US20250388907A1, “MULTISPECIFIC POLYNUCLEOTIDE NANOSTRUCTURES FOR CANCER DETECTION AND THERAPY” (Atom Bioworks, Inc., priority 2021, published 2025).

Several values for one entry are separate records, joined by “and”; a condition that tells them apart may be missing. Equal entries are not always repeated. Where two headings read alike, the source gives them in different places.

The test system of data set [1] is MM1S cells. The data set is described as follows: MTT cell killing assay. The format is cell-based, Human. Conditions: Example 3: 24 hours treatment, MTT after 48 hours; daunorubicin 40 μM; daunorubicin-loaded aptamers 4 μM and 2 μM. As to the method: (§1) Daunorubicin-loaded aptamers were then diluted across various concentrations: 4 μM, 2 μM, 0.2 μM, and 0.02 μM. Untreated cells were used as a negative killing control. 10% DMSO was used as a positive killing control. 40 μM daunorubicin was also used as a positive killing control but one that matched the current National Comprehensive Cancer Network (NCCN) guidelines for AML daunorubicin chemotherapy dosing. Cells were incubated with their respective treatments for 24 hours before they were washed with cell medium. After 48 hours, the viability of all cells were assessed using MTT assays. All conditions were performed in triplicate for standard error analysis. MM1S cells were used as negative control in the assays having aptamers at 4 μM and 2 μM, respectively.
Daunorubicin-loaded aptamers were prepared as described in Example 3. The killing activity of daunorubicin-loaded aptamers alone and daunorubicin-loaded aptamers on various networks of polynucleotides, i.e., 3x3v1 nets and TRD1 tiles on KASUMI-1 cells (an AML cell line) were assessed using the procedures as described in Example 3. […]

Data set [2] relates to KASUMI-1 cells. The data set is described as follows: MTT cell killing assay. The format is cell-based, Human. Conditions: for ΔFold over Free (3x3v1): IC50 on 3x3v1 net versus free aptamer; for ΔFold over Free (TRD1): IC50 on TRD1 versus free aptamer. Here is the method:
as §1
Daunorubicin-loaded aptamers were prepared as described in Example 3. The killing activity of daunorubicin-loaded aptamers alone and daunorubicin-loaded aptamers on various networks of polynucleotides, i.e., 3x3v1 nets and TRD1 tiles on KASUMI-1 cells (an AML cell line) were assessed using the procedures as described in Example 3. Additional negative killing controls were added to control for any inherent nonspecific killing effects by the networks of polynucleotides or aptamers: “3x3v1 net (Empty)” is 3x3v1 net without aptamers (therefore, no daunorubicin), “TRD1 (Empty)” is TRD1 without aptamers (therefore, no daunorubicin), “Scramble Aptamer 1”, “Scramble Aptamer 2”, and “Scramble Aptamer 3” were three oligos with lengths and A:T:C:G ratios similar to the tested aptamers but whose nucleotide sequences were randomized but also loaded with daunorubicin. 0.4 μM Daunorubicin were intercalated into aptamers across all conditions.
KASUMI-1 cells were cultured and incubated with all five aptamers (each loaded with daunorubicin) across six concentrations: 10 nM, 1 nM, […] and 100 fM. 10% DMSO, 40 μM daunorubicin, 4 μM daunorubicin, and 0.4 μM daunorubicin were used as positive killing controls. 3x3v1 net (Empty), TRD1 (Empty), Scramble Aptamer 1, Scramble Aptamer 2, and Scramble Aptamer 3 were negative killing controls. Incubation and washing procedures were as described in Experiment 3. After 48 hours, the samples were measured for viability via MTT assay. Data points were plotted and unpaired student's t—tests were performed to determine significance. For IC50 calculations, the concentrations were transformed to the logarithmic equivalent followed by normalization of the relative cell viability on a scale of 0-100. The normalized viability was subjected to nonlinear regression against the logarithmically converted inhibitor concentrations in the three parameters variable slope mode to determine the IC50. […]
ABWT050902 aptamers with D1 dock sites were loaded with daunorubicin as described previously. Aptamers were then immobilized on PTR45 and PTR86 (please refer to FIG. 17B and FIG. 17C). PTR45 was loaded with 20 ABWT050902 D1 aptamers, whereas PTR86 were loaded with 40. KASUMI-1 cells were grown, incubated with analytes, and measured via MTT cell killing assays as described previously.

Data set [3] deals with mouse IgG. Nature of the data set: SPR binding assay of Protein G activity, Biacore CM5 chip. As to conditions: mouse IgG immobilized on CM5 chip, equivalent conjugate amount. As to the method: We used a sulfo-SMCC linker to conjugate an oligo (complementary to 3x3v1 docking sites) bearing a 5′ amine to the N terminal cysteine sulfhydryl R group on 6xHis-tagged recombinant Protein G (the oligo also bore a 3′ biotin for later purification). This was performed at room temperature in 1x phosphate buffered saline (PBS), pH 7.4. Oligo functionalization with sulfo-SMCC was performed first (as is typical), followed by two Zeba column (7 kDa molecular weight cutoff) cleanups to remove the excess sulfo-SMCC. Functionalized oligos were then placed in molar excess to Cys-Protein G. Purification proceeded via usage of monomeric avidin resin (to remove any unconjugated Cys-Protein G) followed by Ni^2+-NTA resin (to remove any unconjugated oligos). Oligo-Protein G conjugates were then docked to 3x3v1 (27 docking sites) and 3x3v2 (9 docking sites) nets and assayed for activity on SPR binding assays.

Data set [4] concerns the target CD117 (c-KIT) (UniProt P10721 P10721:26-524). Nature of the data set: SPR; aptamer alone, CD117 immobilized on CM5 chip. Conditions: tags: immobilized on Biacore CM5 chip; label: 5' FAM (flow cytometry). Here is the method: Next, surface plasmon resonance (SPR) assays were performed to assess the ability of networks of polynucleotides to improve the binding affinity of an aptamer. Aptamer ABWT050902 (a CD 117 binder) was folded as previously described. Aptamers alone, and aptamers on a TRD1 (as illustrated in FIG. 2) were prepared at varying concentrations and flowed over a CM5 sensor chip on a Biacore SPR immobilized with CD117. The inter-binder distances of the 96 uniquely addressable docking loci for CD 117 binders was 5 nm. Concentrations were normalized to total aptamer amount.

The nature of data set [5]: Kinetic fluorescent assay of daunorubicin release over time. As to conditions: free daunorubicin in supernatant buffer. An excerpt: Despite both “ABWT050902 Alone, With Daunorubicin” and “ABWT050902 on TRD1” conditions beginning the assay at the same time, the former began the assay with higher fluorescence of 400.0+ RFUs compared to the latter. This is because more free daunorubicin was in the supernatant buffer of “ABWT050902 Alone, with Daunorubicin” compared to “ABWT050902 on TRD1”.

Data set [6] deals with CD117 (Homo sapiens, UniProt P10721). The data set is described as follows: SPR binding assay, Biacore CM5 chip. As to conditions: CD117 immobilized on CM5 chip, concentrations normalized to total aptamer amount.
Setting [7] is: KASUMI-1, MTT after 48 hours, daunorubicin or daunorubicin-loaded aptamer alone, read-out: IC50 (pM) Free.
Where [8] appears, read: KASUMI-1, daunorubicin-loaded aptamer immobilized on 3x3v1 net, read-out: IC50 (pM) 3x3v1.
Where [9] appears, read: KASUMI-1, daunorubicin-loaded aptamer immobilized on 3x3v1 net, read-out: IC90 (pM) 3x3v1.
The mark [10] stands for this setting: KASUMI-1, daunorubicin-loaded aptamer immobilized on TRD1, read-out: IC50 (pM) TRD1.
Setting [11] is: KASUMI-1, daunorubicin-loaded aptamer immobilized on TRD1, read-out: IC90 (pM) TRD1.

CD117, sequence (P10721 26-976): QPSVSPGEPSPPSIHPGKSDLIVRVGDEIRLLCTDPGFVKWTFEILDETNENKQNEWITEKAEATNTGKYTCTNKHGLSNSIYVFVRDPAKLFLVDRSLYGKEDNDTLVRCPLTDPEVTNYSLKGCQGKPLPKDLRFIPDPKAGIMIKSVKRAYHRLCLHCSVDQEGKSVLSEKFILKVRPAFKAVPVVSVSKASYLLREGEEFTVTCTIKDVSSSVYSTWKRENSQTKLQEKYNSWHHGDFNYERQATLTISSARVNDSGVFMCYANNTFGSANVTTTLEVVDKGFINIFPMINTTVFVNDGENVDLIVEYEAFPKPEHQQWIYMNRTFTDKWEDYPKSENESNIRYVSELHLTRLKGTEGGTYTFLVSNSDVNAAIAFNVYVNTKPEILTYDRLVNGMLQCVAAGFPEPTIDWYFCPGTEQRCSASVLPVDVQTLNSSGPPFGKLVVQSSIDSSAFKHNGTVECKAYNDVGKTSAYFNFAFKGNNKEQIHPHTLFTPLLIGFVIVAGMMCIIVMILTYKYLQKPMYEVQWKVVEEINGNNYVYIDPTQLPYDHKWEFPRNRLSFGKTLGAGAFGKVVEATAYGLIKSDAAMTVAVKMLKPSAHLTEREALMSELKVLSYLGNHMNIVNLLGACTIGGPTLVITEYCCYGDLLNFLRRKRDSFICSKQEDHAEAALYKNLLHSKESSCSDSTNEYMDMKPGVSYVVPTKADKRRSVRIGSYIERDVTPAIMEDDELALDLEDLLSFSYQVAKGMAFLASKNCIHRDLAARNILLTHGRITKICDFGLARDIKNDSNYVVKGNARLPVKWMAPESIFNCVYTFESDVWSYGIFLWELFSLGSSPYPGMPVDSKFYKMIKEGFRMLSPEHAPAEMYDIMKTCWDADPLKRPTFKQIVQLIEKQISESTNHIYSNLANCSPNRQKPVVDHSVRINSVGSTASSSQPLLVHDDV
CD117 (c-KIT), sequence (P10721 26-524, one chain of several): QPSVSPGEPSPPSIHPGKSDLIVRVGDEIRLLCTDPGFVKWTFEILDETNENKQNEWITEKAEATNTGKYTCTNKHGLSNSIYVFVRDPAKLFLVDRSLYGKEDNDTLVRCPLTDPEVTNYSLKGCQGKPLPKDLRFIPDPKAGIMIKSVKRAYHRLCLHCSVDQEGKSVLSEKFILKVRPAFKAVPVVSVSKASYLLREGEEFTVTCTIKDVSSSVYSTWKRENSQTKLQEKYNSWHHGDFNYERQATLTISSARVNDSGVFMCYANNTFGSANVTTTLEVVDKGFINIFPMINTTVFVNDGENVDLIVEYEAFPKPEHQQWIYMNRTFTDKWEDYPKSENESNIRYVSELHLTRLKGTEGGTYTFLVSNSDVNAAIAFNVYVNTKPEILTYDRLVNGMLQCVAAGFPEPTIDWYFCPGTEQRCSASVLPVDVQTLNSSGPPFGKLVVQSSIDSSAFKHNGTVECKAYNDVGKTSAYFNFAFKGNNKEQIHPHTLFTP

On to `COc1cccc2c1C(=O)c1c(O)c3c(c(O)c1C2=O)C[C@@](O)(C(C)=O)C[C@@H]3O[C@H]1C[C@H](N)[C@H](O)[C@H](C)O1` [Daunorubicin, daunorubicin, reference compound], for which the “killing of MM1S cells” value in data set [1] is on record as “approximately 50%”. The “killing of KASUMI-1 cells” value in data set [2] (Example 3: 24 hours treatment, MTT after 48 hours, daunorubicin 40 μM, daunorubicin-loaded aptamers 4-0.02 μM) is given as “approximately 20%”. The concentration for half-maximal inhibition (IC50) in data set [2] (Homo sapiens, Kasumi 1, 48 h, read-out: IC50 (pM) Free) was determined as 58400 pM.

B1: Oligo-Protein G conjugates: docking oligo conjugated via sulfo-SMCC linker to 6xHis-tagged recombinant Protein G (conjugate)
chain: TYKLILNGKTLKGETTTEAVDAATAEKVFKQYANDNGVDGEWTYDDATKTFTVTEKPEVIDASELTPAVTTYKLVINGKTLKGETTTEAVDAATAEKVFKQYANDNGVDGEWTYDDATKTFTVTEKPEVIDASELTPAVTTYKLVINGKTLKGETTTKAVDAETAEKAFKQYANDNGVDGVWTYDDATKTFTVTE
Turning to B1, the “relative response, binding to mouse IgG” value in data set [3] is on record as roughly 145 RUs.

B2: 3x3v2-Conjugate: Oligo-Protein G conjugates immobilized on 3x3v2 nets (conjugate)
chain: B1 chain
Take B2: the “relative response, binding to mouse IgG” value in data set [3] is listed as roughly 170 RUs.

B3: CY30: CD123-binding aptamer, SEQ ID NO: 5 (nucleic acid)
chain: TGCGTGTGTACTGTGTCTGGTCCCGTAGCTACTAGCGAACTCCCTGCCTCTTAGGGATTTGGGCGG
modifications: listed as DNA, chemistry not fully specified
In the case of B3, the “ΔFold over Free (3x3v1)” value in data set [2] came to 5.5 x. Besides, in data set [2], the “ΔFold over Free (TRD1)” value came to 38.1 x. Also, the IC50 in data set [2] (setting [7]) came to 5070 pM; in data set [2] (setting [8]) it was 931 pM; in data set [2] (setting [10]), 133 pM. Moreover, the IC90 came to 8700 pM in data set [2] (setting [9]) and 93600 pM in data set [2] (setting [11]).

B4: ZW25: CD123-binding aptamer, SEQ ID NO: 4 (nucleic acid)
chain: TGCGTGTGTAGTGTGTCTGGGCTACATCGATGAGCTGCCTAGGGTCCCTCTTAGGGATTTGGGCGGG
modifications: listed as DNA, chemistry not fully specified
As to B4, the “ΔFold over Free (3x3v1)” value in data set [2] turned out to be 8.0 x. Further, the “ΔFold over Free (TRD1)” value in data set [2] is 34.7 x. In addition, the half-inhibitory concentration (IC50) in data set [2] (setting [7]) came to 3540 pM; in data set [2] (setting [8]) it was 445 pM; in data set [2] (setting [10]) it was 102 pM. Also, the IC90 in data set [2] (setting [9]) turned out to be 128000 pM; in data set [2] (setting [11]), 7830 pM.

B5: ABWT050902 (ssDNA)
DNA: ATCCAGAGTGACGCAGCACCGCCCATGTCGAATAGGTGCCACGTAGGGACTTGGACACGGTGGCTTAGT
With B5, the equilibrium dissociation constant (Kd) in data set [4] came to 1220 nM.

B6: ABWT050902: CD117-binding aptamer, SEQ ID NO: 1; FAM-labeled or daunorubicin-loaded in tests (nucleic acid)
chain: B5 DNA
modifications: FAM label or daunorubicin loading in tests, chemistry not fully specified
Take B6: the “fluorescence at the beginning of the daunorubicin release assay” value in data set [5] was no less than 400.0 RFUs. Besides, the “ΔFold over Free (3x3v1)” value in data set [2] worked out at 2.4x. Further, the figures for the half-inhibitory concentration (IC50) in data set [2] (setting [7]) and in data set [2] (setting [8]) were 529 pM and 218 pM, respectively. Further, the 90% effect concentration (IC90) in data set [2] (setting [9]) is 61800 pM. Moreover, the dissociation constant (Kd) in data set [6] is ~1220 nM and 1220 nM.

B7: #1: CD117-binding aptamer, SEQ ID NO: 3 (nucleic acid)
chain: GAGGCATACCAGCTTATTCAAGGGGCCGGGGCAAGGGGGGGGTACCGTGGTAGGACATAGTAAGTGCAATCTGCGAA
modifications: listed as DNA, chemistry not fully specified
Regarding B7, in data set [2], the “ΔFold over Free (3x3v1)” value is 3.6x. Besides, in data set [2], the “ΔFold over Free (TRD1)” value is recorded as 5.6x. Moreover, the values for the half-inhibitory concentration (IC50) in data set [2] (setting [7]), in data set [2] (setting [8]) and in data set [2] (setting [10]) were 531 pM, 147 pM and 95 pM, respectively. Moreover, the IC90 amounted to 108000 pM in data set [2] (KASUMI-1, daunorubicin-loaded aptamer alone, read-out: IC90 (pM) Free); 208000 pM in data set [2] (setting [9]); 165000 pM in data set [2] (setting [11]).

B8: ABWT050904: CD117-binding aptamer, SEQ ID NO: 2 (nucleic acid)
chain: ATCCAGAGTGACGCAGCACGAGCCTTGTGTCGTTCGGAGTGCTGGTCCACGACTACTATTGGACACGGTGGCTTAGT
modifications: listed as DNA, chemistry not fully specified
For B8, the “ΔFold over Free (3x3v1)” value in data set [2] was 4.2x. For the same molecule, the IC50 in data set [2] (setting [7]) came to 976 pM; in data set [2] (setting [8]) it was 233 pM. Moreover, in data set [2] (setting [9]), the IC90 came to 17600 pM.
